Reference: paper PMC12860359 (2025)
Where a chain is given by its changes, count along the chain named. Each block holds one binder with its values, some of them ahead of it.

Tests used:
MBP-HA Rap1B WT [1] = target: T1, MBP-HA Rap1B WT (human, UniProt P61224-1 1-184); assay: BLI; GDP-bound Rap1B
T1 chain: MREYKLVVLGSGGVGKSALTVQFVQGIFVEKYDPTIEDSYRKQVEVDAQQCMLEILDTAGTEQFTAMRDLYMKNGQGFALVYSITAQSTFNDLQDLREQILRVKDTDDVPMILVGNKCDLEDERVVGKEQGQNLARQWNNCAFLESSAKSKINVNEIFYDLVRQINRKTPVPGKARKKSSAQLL

MBP-HA Rap1B WT [2] = target: T1, MBP-HA Rap1B WT; assay: BLI; GTPγS-bound Rap1B
MBP-HA Rap1B WT [3] = target: T1, MBP-HA Rap1B WT; assay: BLI; GTPγS-bound Rap1B

- Kd (MBP-HA Rap1B WT [1]): 722 nM
- koff (MBP-HA Rap1B WT [2]): 0.000574 s⁻¹
B1: VHH-hFcS A47 (Fc fusion)
chain: EVQLQASGGGFVQPGGSLRLSCAASGFTSKNTIMGWFRQAPGKEREFVSAISSAPGYWEYYADSVKGRFTISRDNSKNTVYLQMNSLRAEDTATYYCAAPINQAPGRPIRSDQYWGQGTQVTVSS

- Kd (MBP-HA Rap1B WT [1]): 295 nM
- koff (MBP-HA Rap1B WT [2]): 0.00104 s⁻¹
- Kd (MBP-HA Rap1B WT [3]): 25.8 nM
B2: VHH-hFcS B14 (Fc fusion)
chain: B1 chain with F37Y, F47L

- Kd (MBP-HA Rap1B WT [1]): 20.2 nM
B3: VHH-hFcS B89 (Fc fusion)
chain: B1 chain with S111W
